Patent publication US20240018502

Experiments:
[1] = biological target: complement protein C3 of cynomolgus monkey plasma
[2] = biological target: human complement protein C3
[3] = biological target: T1, quenched fluorescence peptidic substrate containing SKGR/SL (P4-P2' of the PAR-2 activation cleavage site, Ser 33 to Leu 38)
T1 chain: SKGRSL

B1: Q38H/I41A/D60bV/F60eR/Y60gW/D96I/F97N/T98G/F99L/C122S/G151N/Q175L/Q192D (protein)
chain: VVGGTDADEGEWPWQVSLHALGHGHACGASLISPNWLVSAAHCYIDVRGRRWSDPTQWTAFLGLHDQSQRSAPGVQERRLKRIISHPFFNINGLDYDIALLELEKPAEYSSMVRPISLPDASHVFPAGKAIWVTGWGHTQYGGTNALILQKGEIRVINQTTCENLLPQLITPRMMCVGFLSGGVDSCDGDSGGPLSSVEADGRIFQAGVVSWGDGCAQRNKPGVYTRLPLFRDWIKENTGV
ED50 80% cynomolgus plasma (nM), C3 cleavage, C3 ELISA [1]: 58 nM | ED50 80% human plasma (60 min, nM), C3 cleavage [2]: 24 nM | SKGR/SL kcat/Km [3]: 3560 M⁻¹ s⁻¹

B2: Wild-type MTSP-1 protease domain with C122S (protein)
chain: VVGGTDADEGEWPWQVSLHALGQGHICGASLISPNWLVSAAHCYIDDRGFRYSDPTQWTAFLGLHDQSQRSAPGVQERRLKRIISHPFFNDFTFDYDIALLELEKPAEYSSMVRPISLPDASHVFPAGKAIWVTGWGHTQYGGTGALILQKGEIRVINQTTCENLLPQQITPRMMCVGFLSGGVDSCQGDSGGPLSSVEADGRIFQAGVVSWGDGCAQRNKPGVYTRLPLFRDWIKENTGV
ED50 80% cynomolgus plasma (nM), C3 cleavage, C3 ELISA [1]: 2800 nM | ED50 80% human plasma (60 min, nM), C3 cleavage [2]: 3500 nM | ED50 of cleavage of human C3 [2]: compared to 11 nM for the wild-type protease domain of SEQ ID NO:4 | SKGR/SL kcat/Km [3]: 200000 M⁻¹ s⁻¹

B3: Q38H/I41S/D60bT/F60eS/Y60gW/D96K/F97D/ins97aA/T98P/F99L/C122S/G151H/Q175L/Q192D (protein)
chain: VVGGTDADEGEWPWQVSLHALGHGHSCGASLISPNWLVSAAHCYIDTRGSRWSDPTQWTAFLGLHDQSQRSAPGVQERRLKRIISHPFFNKDAPLDYDIALLELEKPAEYSSMVRPISLPDASHVFPAGKAIWVTGWGHTQYGGTHALILQKGEIRVINQTTCENLLPQLITPRMMCVGFLSGGVDSCDGDSGGPLSSVEADGRIFQAGVVSWGDGCAQRNKPGVYTRLPLFRDWIKENTGV
ED50 80% cynomolgus plasma (nM), C3 cleavage, C3 ELISA [1]: 85 nM | ED50 80% human plasma (60 min, nM), C3 cleavage [2]: 34 nM | SKGR/SL kcat/Km [3]: 4030 M⁻¹ s⁻¹

B4: Q38H/I41S/D60bT/F60eS/Y60gW/D96K/F97G/ins97aV/T98P/F99L/C122S/G151H/Q175L/Q192D (protein)
chain: VVGGTDADEGEWPWQVSLHALGHGHSCGASLISPNWLVSAAHCYIDTRGSRWSDPTQWTAFLGLHDQSQRSAPGVQERRLKRIISHPFFNKGVPLDYDIALLELEKPAEYSSMVRPISLPDASHVFPAGKAIWVTGWGHTQYGGTHALILQKGEIRVINQTTCENLLPQLITPRMMCVGFLSGGVDSCDGDSGGPLSSVEADGRIFQAGVVSWGDGCAQRNKPGVYTRLPLFRDWIKENTGV
ED50 80% cynomolgus plasma (nM), C3 cleavage, C3 ELISA [1]: 92 nM | C3H50 Hemolytic Activity (U/mL), C3-depleted serum plus purified C3; Test Condition #1 (C3 and 8 nM test article incubated separately, no pre-cleavage) [2]: 470 U/mL | C3H50 Hemolytic Activity (U/mL), C3-depleted serum plus purified C3; Test Condition #1 (C3 and 40 nM test article incubated separately, no pre-cleavage) [2]: 594 U/mL | C3H50 Hemolytic Activity (U/mL), C3-depleted serum plus purified C3; Test Condition #1 (C3 and 200 nM test article incubated separately, no pre-cleavage) [2]: 438 U/mL | C3H50 Hemolytic Activity (U/mL), C3-depleted serum plus purified C3; Test Condition #2 (C3 pre-incubated 2 h at 37 C with 8 nM test article) [2]: 295 U/mL | C3H50 Hemolytic Activity (U/mL), C3-depleted serum plus purified C3; Test Condition #2 (C3 pre-incubated 2 h at 37 C with 40 nM test article) [2]: 97.9 U/mL | C3H50 Hemolytic Activity (U/mL), C3-depleted serum plus purified C3; Test Condition #2 (C3 pre-incubated 2 h at 37 C with 200 nM test article) [2]: 73.7 U/mL | CH50 hemolytic activity (U/mL), human citrated plasma after 1 h at 37 C with 3.2 nM test article [2]: 73 U/mL | CH50 hemolytic activity (U/mL), human citrated plasma after 1 h at 37 C with 16 nM test article [2]: 69 U/mL | CH50 hemolytic activity (U/mL), human citrated plasma after 1 h at 37 C with 80 nM test article [2]: 41.5 U/mL | CH50 hemolytic activity (U/mL), human citrated plasma after 1 h at 37 C with 400 nM test article [2]: 10.8 U/mL | CH50 hemolytic activity (U/mL), human citrated plasma after 1 h at 37 C with 2000 nM test article [2]: 5.56 U/mL | ED50 80% human plasma (60 min, nM), C3 cleavage [2]: 25 nM | SKGR/SL kcat/Km [3]: 6210 M⁻¹ s⁻¹

B5: I41R/F97T/Ins97aE/T98G/F99L/C122S/G151N/Q175L/Q192E (protein)
chain: VVGGTDADEGEWPWQVSLHALGQGHRCGASLISPNWLVSAAHCYIDDRGFRYSDPTQWTAFLGLHDQSQRSAPGVQERRLKRIISHPFFNDTEGLDYDIALLELEKPAEYSSMVRPISLPDASHVFPAGKAIWVTGWGHTQYGGTNALILQKGEIRVINQTTCENLLPQLITPRMMCVGFLSGGVDSCEGDSGGPLSSVEADGRIFQAGVVSWGDGCAQRNKPGVYTRLPLFRDWIKENTGV
ED50 80% cynomolgus plasma (nM), C3 cleavage, C3 ELISA [1]: 2200 nM | ED50 80% human plasma (60 min, nM), C3 cleavage [2]: 835 nM | SKGR/SL kcat/Km [3]: < 100 M⁻¹ s⁻¹

B6: Q38H/I41S/D60bT/F60eS/Y60gW/D96L/F97D/ins97aG/T98N/F99L/C122S/G151H/Q175L/Q192E (protein)
chain: VVGGTDADEGEWPWQVSLHALGHGHSCGASLISPNWLVSAAHCYIDTRGSRWSDPTQWTAFLGLHDQSQRSAPGVQERRLKRIISHPFFNLDGNLDYDIALLELEKPAEYSSMVRPISLPDASHVFPAGKAIWVTGWGHTQYGGTHALILQKGEIRVINQTTCENLLPQLITPRMMCVGFLSGGVDSCEGDSGGPLSSVEADGRIFQAGVVSWGDGCAQRNKPGVYTRLPLFRDWIKENTGV
ED50 80% cynomolgus plasma (nM), C3 cleavage, C3 ELISA [1]: 70 nM | ED50 80% human plasma (60 min, nM), C3 cleavage [2]: 39 nM | SKGR/SL kcat/Km [3]: 1300 M⁻¹ s⁻¹

B7: Q38H/I41S/D60bT/F60eS/Y60gW/F97D/ins97aV/T98P/F99L/C122S/G151N/Q175L/Q192D (protein)
chain: VVGGTDADEGEWPWQVSLHALGHGHSCGASLISPNWLVSAAHCYIDTRGSRWSDPTQWTAFLGLHDQSQRSAPGVQERRLKRIISHPFFNDDVPLDYDIALLELEKPAEYSSMVRPISLPDASHVFPAGKAIWVTGWGHTQYGGTNALILQKGEIRVINQTTCENLLPQLITPRMMCVGFLSGGVDSCDGDSGGPLSSVEADGRIFQAGVVSWGDGCAQRNKPGVYTRLPLFRDWIKENTGV
ED50 80% cynomolgus plasma (nM), C3 cleavage, C3 ELISA [1]: 118 nM | ED50 80% human plasma (60 min, nM), C3 cleavage [2]: 41 nM | SKGR/SL kcat/Km [3]: 1730 M⁻¹ s⁻¹

B8: Q38H/I41S/D60bT/F60eS/Y60gW/F97D/ins97aV/T98P/F99L/C122S/G151H/Q175L/Q192D (protein)
chain: VVGGTDADEGEWPWQVSLHALGHGHSCGASLISPNWLVSAAHCYIDTRGSRWSDPTQWTAFLGLHDQSQRSAPGVQERRLKRIISHPFFNDDVPLDYDIALLELEKPAEYSSMVRPISLPDASHVFPAGKAIWVTGWGHTQYGGTHALILQKGEIRVINQTTCENLLPQLITPRMMCVGFLSGGVDSCDGDSGGPLSSVEADGRIFQAGVVSWGDGCAQRNKPGVYTRLPLFRDWIKENTGV
ED50 80% cynomolgus plasma (nM), C3 cleavage, C3 ELISA [1]: 152 nM | ED50 80% human plasma (60 min, nM), C3 cleavage [2]: 50 nM | SKGR/SL kcat/Km [3]: 1730 M⁻¹ s⁻¹
